According to US20030158387A1:

What was measured:
[1] = target: chemokine receptor 1 (CCR1) (UniProt P56482); assay: competition radioligand binding, membranes of CHO-K1 cells expressing CCR1, tracer [125I]-MIP-1 alpha
[2] = target: chemokine receptor 5 (CCR5) (human) (UniProt P51681)
[3] = target: chemokine receptor 5 (CCR5) (human) (UniProt P51681); remark: listed apart in the source
[4] = target: chemokine receptor 1 (CCR1) (UniProt P56482); assay: competition radioligand binding, membranes of CHO-K1 cells expressing CCR1, tracer [125I]-MIP-1 alpha; mean ± SEM
[5] = target: chemokine receptor 5 (CCR5) (human) (UniProt P51681); assay: competition radioligand binding, membranes of CHO-K1 cells expressing CCR5, tracer [125I]-MIP-1 beta; mean ± SEM
[6] = target: chemokine receptor 5 (CCR5) (human) (UniProt P51681); assay: competition radioligand binding, membranes of CHO-K1 cells expressing CCR5, tracer [125I]-MIP-1 beta
[7] = target: chemokine receptor 1 (CCR1) (UniProt P56482)
[8] = target: chemokine receptor 1 (CCR1) (UniProt P56482); assay: cell-based or functional assay
[9] = target: chemokine receptor 1 (CCR1) (UniProt P56482); remark: listed apart in the source

Chain of chemokine receptor 5 (CCR5) (human) (P51681 whole entry): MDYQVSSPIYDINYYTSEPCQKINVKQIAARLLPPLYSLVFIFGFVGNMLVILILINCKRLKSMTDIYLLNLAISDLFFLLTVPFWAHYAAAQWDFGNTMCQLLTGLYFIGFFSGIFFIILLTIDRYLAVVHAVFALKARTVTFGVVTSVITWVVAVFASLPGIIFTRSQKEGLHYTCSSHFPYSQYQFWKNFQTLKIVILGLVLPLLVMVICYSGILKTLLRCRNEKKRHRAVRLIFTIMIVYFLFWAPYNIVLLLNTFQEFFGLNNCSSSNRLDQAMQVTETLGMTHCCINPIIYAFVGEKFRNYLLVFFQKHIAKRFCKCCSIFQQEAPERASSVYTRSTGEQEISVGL
Chain of RANTES (P13501 24-91): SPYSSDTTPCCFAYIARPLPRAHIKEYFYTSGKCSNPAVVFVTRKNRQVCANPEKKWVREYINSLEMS

IC50 (read off the curve) [1]	EC50 (read off the curve) [2]	EC50 (aequorin luminescence, CHO-K1 cells expressing CCR5) [3]	IC50 [4]	IC50 [5]	IC50 (read off the curve) [6]	EC50 (read off the curve) [7]	EC50 of receptor activation (aequorin assay) [8]	EC50 (aequorin luminescence, CHO-K1 cells expressing CCR1) [9]	Substance
4 nM	3 nM	1.94 nM	2.67 nM	0.0968 nM	0.06 nM				AOP-RANTES (ligand)
4 nM		1.45 nM	5.42 nM	0.776 nM	0.1 nM				NNY-RANTES (ligand)
0.3 nM						10 nM	6.3 nM	8.03 nM	RANTES (from UniProt P13501 24-91) (ligand)
